Test results as given in patent US20220025032A1 (Novartis, published 2022).

Assays:
[1] = target: T1, Human BTC (human, UniProt P35070 32-111); experiment: cell-based inhibition of BTC binding to ErbB4
T1 construct: Soluble human BTC of the Biacore, ELISA, MSD and cell assays; also called human betacellulin; soluble human BTC
T1 sequence: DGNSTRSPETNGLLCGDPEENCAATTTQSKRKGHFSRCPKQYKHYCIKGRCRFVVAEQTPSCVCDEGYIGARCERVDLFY

[2] = target: T2, Human VEGF165 (human, UniProt P15692 27-191); experiment: competition ELISA: antibody pre-incubated with VEGF-biotin, added to coated VEGFR2
T2 construct: mature; biotinylated in the VEGFR2 ELISAs; also called human VEGF-A; VEGF-A
T2 sequence (P15692 other isoform, or with tags, fused parts or gaps): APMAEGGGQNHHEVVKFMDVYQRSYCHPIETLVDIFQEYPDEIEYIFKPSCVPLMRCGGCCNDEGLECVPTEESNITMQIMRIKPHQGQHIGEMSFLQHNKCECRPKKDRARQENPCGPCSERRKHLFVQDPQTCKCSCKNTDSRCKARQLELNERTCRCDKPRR
Protocol: The plates were then washed 3 times using 1λTBST. The plates were blocked in 2% BSA diluent (0.1% Tween 20/0.1% TirtonX100) overnight. After blocking, the plates were washed 3 times using TB ST and then the sample mixture was added at 20 μl/well. The sample mixture consisted a final fixed concentration of VEGF-biotin (in-house) at 400 pM and a 15 point 1:2 serial dilution of the antibody starting at 20 nM. The sample mixture was pre-incubated for 1 hour prior to adding to the plate and then incubated for another hour at room temperature on the plate. Afterwards, the plate was washed 3 times using TBST and 20 μl/well of Streptavidin-HRP diluted at 1:5000 was added for an incubation time of 1 hour. The plates were washed 3 times in TBST and then 20 μl/well of TMB substrate was added. TMB is a chromogen that yields a blue color when oxidized. TMB was incubated for 10 minutes until the signal saturated in the no antibody samples, and then 10 μl/well of 2N sulfuric acid was added which then changes the blue color to yellow and this now has a maximum absorbance at 450 nm.

[3] = target: T3, Human BTC-avitag-biotin (human, UniProt P35070 32-111, biotin on the avitag); experiment: flow cytometry, BTC-ErbB1 Cell Binding Inhibition: antibody pre-incubated with 15 nM human BTC-avitag-biotin, HKB11 cells over-expressing human ErbB1; y axis Percent Inhibition
T3 construct: also called biotin-BTC; soluble human BTC-avitag-biotin
T3 sequence: T1 sequence
Protocol: HKB11 over-expressing either ErbB1 or ErbB4 cells were plated 1×10⁵ cells/well. Cells were washed once with FACS buffer by spun down at 1200 rpm for 5 minutes and supernatant removed. Next, the Fab sample dilutions and BTC were prepared in FACS buffer. Human BTC-avitag-biotin was diluted to a fixed concentration of 15 nM. The test Fab samples were prepared at a starting concentration of 40 nM and titrated for 9 points at a serial dilution of 1:2. Both biotin-BTC and the test Fab samples are incubated for 30 minutes at room temperature. The pre-incubated samples were then added to the cell plate at 100 μl per well in duplicate and incubated for 1 hour on ice. The plate was then washed once in FACS buffer and spun down at 1200 rpm for 5 minutes and supernatant removed. […]
Measurements were performed on Attune Flow Cytometry machine. Data were analysed using the Flow Jo software. The live cell populations analysed were gated in forward and side scattering (FSC-A/SSC-A dot plot). The interval gate was established on the control histogram, which was obtained with sample incubated in streptavidin-Alexa Fluor488 only, and subsequently, determined percent of positive binding events of cells carrying membrane-bound receptor ErbB1 or ErbB4 and biotin-BTC. The median of fluorescence intensity (MFI) value was also derived for the live cell population. […]

B1: NVS1 (Fab, V domains shown)
VH: QVQLVQSGAEVKKPGSSVKVSCKASGGTFSSYAISWVRQAPGQGLEWMGGIVPWMGEAVYAQKFQGRVTITADESTSTAYMELSSLRSEDTAVYYCARSSSTYGIHAFDYWGQGTLVTVSS
VL: DIQMTQSPSSLSASVGDRVTITCRASQSISNFLNWYQQKPGKAPKLLIYAASNLQSGVPSRFSGSGSGTDFTLTISSLQPEDFATYYCQQYDDFPMTFGQGTKVEIKR
notes: also called Fab NVS1; NVS1 Fab
In the case of B1, the “Cell-based binding inhibition BTC/ErbB4” value [1] is reported as > 90%, the binding result [2] is reported as “no binding (tested: 20000 pM)” and the IC50 [3] is reported as 2.5 nM.
